In article PMC8163871, “Structures of the human LONP1 protease reveal regulatory steps involved in protease activation” (Nature Communications, 2021):

Assays:
[1] = molecular target: the molecule itself; assay: cryo-EM structure; wild-type LONP1 2.5 mg/ml in 50 mM Tris pH 8, 75 mM KCl, 10 mM MgCl2, 1 mM TCEP, 1 mM ATPγS; substrate-free (~3.4 Å) and substrate-bound (~3.2 Å) conformations from one sample; LONP1 with itself
[2] = molecular target: the molecule itself; assay: cryo-EM structure; Walker B (E591A) LONP1 2.5 mg/ml in 50 mM Tris pH 8, 75 mM KCl, 10 mM MgCl2, 1 mM TCEP, 1 mM ATP; ~4.8 Å; LONP1 with itself
[3] = molecular target: the molecule itself; assay: cryo-EM structure; LONP1 2.5 mg/ml in 50 mM Tris pH 8, 75 mM KCl, 10 mM MgCl2, 1 mM TCEP, 1 mM ATPγS with 10-fold molar excess bortezomib; ~3.2 Å; LONP1 with itself

B1: human LONP1 (mature, lacking its N-terminal mitochondrial targeting sequence), wild type (enzyme, UniProt P36776 115-959, looked up)
chain: MTIPDVFPHLPLIAITRNPVFPRFIKIIEVKNKKLVELLRRKVRLAQPYVGVFLKRDDSNESDVVESLDEIYHTGTFAQIHEMQDLGDKLRMIVMGHRRVHISRQLEVEPEEPEAENKHKPRRKSKRGKKEAEDELSARHPAELAMEPTPELPAEVLMVEVENVVHEDFQVTEEVKALTAEIVKTIRDIIALNPLYRESVLQMMQAGQRVVDNPIYLSDMGAALTGAESHELQDVLEETNIPKRLYKALSLLKKEFELSKLQQRLGREVEEKIKQTHRKYLLQEQLKIIKKELGLEKDDKDAIEEKFRERLKELVVPKHVMDVVDEELSKLGLLDNHSSEFNVTRNYLDWLTSIPWGKYSNENLDLARAQAVLEEDHYGMEDVKKRILEFIAVSQLRGSTQGKILCFYGPPGVGKTSIARSIARALNREYFRFSVGGMTDVAEIKGHRRTYVGAMPGKIIQCLKKTKTENPLILIDEVDKIGRGYQGDPSSALLELLDPEQNANFLDHYLDVPVDLSKVLFICTANVTDTIPEPLRDRMEMINVSGYVAQEKLAIAERYLVPQARALCGLDESKAKLSSDVLTLLIKQYCRESGVRNLQKQVEKVLRKSAYKIVSGEAESVEVTPENLQDFVGKPVFTVERMYDVTPPGVVMGLAWTAMGGSTLFVETSLRRPQDKDAKGDKDGSLEVTGQLGEVMKESARIAYTFARAFLMQHAPANDYLVTSHIHLHVPEGATPKDGPSAGCTIVTALLSLAMGRPVRQNLAMTGEVSLTGKILPVGGIKEKTIAAKRAGVTCIVLPAENKKDFYDLAAFITEGLEVHFVEHYREIFDIAFPDEQAEALAVER
notes: human LONP1, mature mitochondrial-matrix form with methionine 115 as its first residue; residues ~420-947 resolved in the cryo-EM maps; pET20b-His6-LONP1; no removal of the His6 tag is described; Incubated with ATPγS for cryo-EM; also called His6-LONP1; WT LONP1; source: E. coli Rosetta 2(DE3)pLysS, purified (TALON cobalt resin, Superose 6 size exclusion)
B1 was tested, and the “stoichiometry N” value [1] was 6.

B2: Walker B LONP1 mutant (E591A) (enzyme, human, UniProt P36776 115-959, looked up)
chain: MTIPDVFPHLPLIAITRNPVFPRFIKIIEVKNKKLVELLRRKVRLAQPYVGVFLKRDDSNESDVVESLDEIYHTGTFAQIHEMQDLGDKLRMIVMGHRRVHISRQLEVEPEEPEAENKHKPRRKSKRGKKEAEDELSARHPAELAMEPTPELPAEVLMVEVENVVHEDFQVTEEVKALTAEIVKTIRDIIALNPLYRESVLQMMQAGQRVVDNPIYLSDMGAALTGAESHELQDVLEETNIPKRLYKALSLLKKEFELSKLQQRLGREVEEKIKQTHRKYLLQEQLKIIKKELGLEKDDKDAIEEKFRERLKELVVPKHVMDVVDEELSKLGLLDNHSSEFNVTRNYLDWLTSIPWGKYSNENLDLARAQAVLEEDHYGMEDVKKRILEFIAVSQLRGSTQGKILCFYGPPGVGKTSIARSIARALNREYFRFSVGGMTDVAEIKGHRRTYVGAMPGKIIQCLKKTKTENPLILIDAVDKIGRGYQGDPSSALLELLDPEQNANFLDHYLDVPVDLSKVLFICTANVTDTIPEPLRDRMEMINVSGYVAQEKLAIAERYLVPQARALCGLDESKAKLSSDVLTLLIKQYCRESGVRNLQKQVEKVLRKSAYKIVSGEAESVEVTPENLQDFVGKPVFTVERMYDVTPPGVVMGLAWTAMGGSTLFVETSLRRPQDKDAKGDKDGSLEVTGQLGEVMKESARIAYTFARAFLMQHAPANDYLVTSHIHLHVPEGATPKDGPSAGCTIVTALLSLAMGRPVRQNLAMTGEVSLTGKILPVGGIKEKTIAAKRAGVTCIVLPAENKKDFYDLAAFITEGLEVHFVEHYREIFDIAFPDEQAEALAVER
notes: human LONP1, mature form with methionine 115 as its first residue, with the Walker B mutation E591 to A591; Made by QuikChange from pET20b-His6-LONP1, expressed and purified as the wild type; Structure determined with ATP; also called WalkerB mutant LONP1; source: E. coli Rosetta 2(DE3)pLysS, purified (TALON cobalt resin, Superose 6 size exclusion)
B2: binds [2].

B3: LONP1^Bz: human LONP1 with bortezomib covalently attached to the catalytic serine (enzyme, UniProt P36776 115-959, looked up)
chain: MTIPDVFPHLPLIAITRNPVFPRFIKIIEVKNKKLVELLRRKVRLAQPYVGVFLKRDDSNESDVVESLDEIYHTGTFAQIHEMQDLGDKLRMIVMGHRRVHISRQLEVEPEEPEAENKHKPRRKSKRGKKEAEDELSARHPAELAMEPTPELPAEVLMVEVENVVHEDFQVTEEVKALTAEIVKTIRDIIALNPLYRESVLQMMQAGQRVVDNPIYLSDMGAALTGAESHELQDVLEETNIPKRLYKALSLLKKEFELSKLQQRLGREVEEKIKQTHRKYLLQEQLKIIKKELGLEKDDKDAIEEKFRERLKELVVPKHVMDVVDEELSKLGLLDNHSSEFNVTRNYLDWLTSIPWGKYSNENLDLARAQAVLEEDHYGMEDVKKRILEFIAVSQLRGSTQGKILCFYGPPGVGKTSIARSIARALNREYFRFSVGGMTDVAEIKGHRRTYVGAMPGKIIQCLKKTKTENPLILIDEVDKIGRGYQGDPSSALLELLDPEQNANFLDHYLDVPVDLSKVLFICTANVTDTIPEPLRDRMEMINVSGYVAQEKLAIAERYLVPQARALCGLDESKAKLSSDVLTLLIKQYCRESGVRNLQKQVEKVLRKSAYKIVSGEAESVEVTPENLQDFVGKPVFTVERMYDVTPPGVVMGLAWTAMGGSTLFVETSLRRPQDKDAKGDKDGSLEVTGQLGEVMKESARIAYTFARAFLMQHAPANDYLVTSHIHLHVPEGATPKDGPSAGCTIVTALLSLAMGRPVRQNLAMTGEVSLTGKILPVGGIKEKTIAAKRAGVTCIVLPAENKKDFYDLAAFITEGLEVHFVEHYREIFDIAFPDEQAEALAVER
modifications: bortezomib covalently attached to S855
notes: human LONP1, mature form with methionine 115 as its first residue; with ATPγS
In the case of B3, the “stoichiometry N” value [3] is reported as 6.
